{"source": "paper PMC12421882", "about": "“ThIPK1 regulates lignocellulolytic enzyme expression during wood degradation in white-rot fungi” (mBio, 2025)", "proteins": {"B1": {"name": "ThIPK1 (Trametes hirsuta) (protein)", "chain": "MENDAPIIGDTSPQDWKYISEGGSTIVFSYVGPPHPSFDGTALRLRKGPTPAHEDPEKYEKPSLAPAEPSQEPEASAAGGADDEEPDDPTVVFQRTVIERLVPTAHLPRLQPVRVARAWLAQLAARTEALRPAERRARDAIDLGRRKAVLATDLVGGEGWAVEIKPKWGFLPQPAYLSPETRAIKTRTCRFCMHAQLKKTEGEDVALGYCPLDLYSGDAGRVERALRELWDVWVGSGGAVNNLRVFVQGKMVKPSADPASLAPLTAQLLPPTSTTSPDSEPPAATRPPDTLRDAFIATLLPLLLDTPVLRTLSTLQRTLDALDIEGLAALWARVHPAHALGTGPGPGAADPDIAAWARFVDEHIDRLAQAAEDAKGAGEGEGQGENGSEVPATEDELRYRVAAYLLGASFKDCSLILRMRPHAQGTVTVIDLDVKSADRLGKWAALDREIVDAYRGVSNARRCVDAHYGAVPLP", "notes": "full-length cDNA in pET28a(+), E. coli BL21(DE3), Ni-NTA"}}, "substrate": "O=P(O)(O)O[C@@H]1[C@@H](OP(=O)(O)O)[C@H](OP(=O)(O)O)[C@H](O)[C@H](OP(=O)(O)O)[C@H]1OP(=O)(O)O", "test": "Kinase-Glo Max luminescent kinase assay; Michaelis-Menten nonlinear regression", "type": "biochemical, Trametes hirsuta", "conditions": "300 µM ATP, 5 mM MgCl2, 50 mM NaCl, 50 mM Tris pH 7.5, 28°C"}
{"protein": "B1", "values": [{"measurement": "Km", "value": 31.42, "unit": "µM"}]}
